The source of these data is US20250263490A1 (VIB VZW, published 2025).

In test [1] the target is recombinant human domain 1-3His6 of the cation-independent mannose-6-phosphate receptor (human) (UniProt P11717). Kind of test: BLI at pH 7.4, bivalent model.
For test [2] the target is unchanged. The experiment in a line: BLI exp 1, dissoc pH 5, bivalent model.
Test [3] shares this target. Kind of test: BLI exp 1, dissoc pH 6, bivalent model.
For test [4] the target is unchanged. The experiment in a line: BLI exp 1, dissoc pH 7, bivalent model.
The target is the same in test [5]. The experiment in a line: BLI exp 2, dissoc pH 5, bivalent model.
Test [6] has the same target. The experiment in a line: BLI exp 2, dissoc pH 6, bivalent model.
For test [7] the target is unchanged. The experiment in a line: BLI exp 2, dissoc pH 7, bivalent model.
For test [8] the target is unchanged. Kind of test: BLI exp 1, dissoc pH 7.4, bivalent model.
The target is the same in test [9]. The experiment in a line: BLI exp 2, dissoc pH 7.4, bivalent model.
The target of test [10] is human cation-independent mannose-6-phosphate receptor, native, on cells (human) (UniProt P11717). Kind of test: flow cytometry on HepG2 cells, titration of the anti-CI-M6PR 2G11 antibody (Abcam ab2733) [lower graph].
Test [11] shares this target. The experiment in a line: flow cytometry on HEK293T cells (sheet: HEK293 cell), titration of the anti-CI-M6PR 2G11 antibody (Abcam ab2733) [lower graph].
In test [12] the target is T1, recombinant human domain 1-3His6 of the cation-independent mannose-6-phosphate receptor (human, UniProt P11717 41-467).
T1 construct: Biotinylated (NHS-PEG4-biotin) for BLI; Glycosylated; also called hDom1-3His6; hCI-M6PRD1-D3
Kind of test: in-tandem competitive BLI, 400 nM. The procedure: (§1) FIGS. 50 & 51. In-tandem competitive BLI of purified anti-CI-M6PR VHHs. In-tandem competitive BLI was performed on an Octet Red96 (FortéBio) instrument in kinetics buffer (1×PBS, 1 mg/ml bovine serum albumin, 0.02% Tween-20 and 0.05% sodium azide). Human CI-M6PR domain₁₋₃His₆ (0.5 mg/mL in 50 mM MES, 150 mM NaCl, pH 6.5) was incubated for 30 minutes at room temperature with EZ-Link™ NHS-PEG4-Biotin (1 mg, Thermo Fischer A39259) and NaHCO₃ (100 mM). Biotinylated human domain₁₋₃His₆ was purified using a Zeba spin desalting Column™ (7K MWCO, 2 mL, Thermo Fischer 89890) and immobilized on Streptavidin SA biosensors (Sartorius) to a signal of 0.5 nm. […] Between assays, biosensors were regenerated by three times 10 s exposure to regeneration buffer (10 mM glycine pH 3). Data were double reference-subtracted and aligned in Octet Data Analysis software v9.0 (FortéBio). Greyscale curves represent double reference-subtracted data.
FIG. 55. […] In-tandem competitive BLI was performed as described in FIG. 50.

Test [13] has as its target T1, recombinant human domain 1-3His6 of the …. Kind of test: in-tandem competitive BLI, biotinylated hDom1-3His6 on SA sensors, purified VHH at 400 nM. Here is the method: as §1
The target is the same in test [14]. The experiment in a line: in-tandem competitive BLI, biotinylated hDom1-3His6 on SA sensors, periplasmic extract of E. coli (concentration not given). The procedure:
as §1, with “In-tandem competitive BLI of purified anti-CI-M6PR VHHs.” left out

For test [15] the target is unchanged. Kind of test: in-tandem competitive BLI, biotinylated hDom1-3His6 on SA sensors, purified VHH.
For test [16] the target is unchanged. The experiment in a line: BLI, global 1:1 fit, pH 7.4. Here is the method: (§2) FIGS. 58 & 59. […] BLI was performed on an Octet Red96 (FortéBio) instrument in kinetics buffer (0.2 M Na₂HPO₄, 0.1 M Na⁺ citrate, 0.01% bovine serum albumin, 0.002% Tween-20). Biotinylated human domain₁₋₃His₆ was immobilized on Streptavidin SA biosensors (Sartorius) to a signal of 0.6 nm. […] Between assays, biosensors were regenerated by three times 10 s exposure to regeneration buffer (10 mM glycine pH 3). The degree of association and dissociation was measured in δ nm over time (s).
(§3) After loading, the tips were incubated with VHHs serially diluted in pH 7.4 kinetic buffer during the association phase and dissociation was performed at pH 7.4, pH 6.5, pH 6.0, pH 5.5 and pH 5.0. All biosensor tips were then regenerated before analysis of the subsequent VHH. Table 13 summarizes the kinetic parameters retrieved after processing and curve fitting of the BLI measurements. When both association and dissociation were performed at pH 7.4, a global fit was performed according to the 1:1 binding model of which the resulting affinity constants (KD), association (kₒₙ) and dissociation rate constants (koff) are shown. For measurements with association at pH 7.4 and dissociation at pH 6.5, 6.0, 5.5 and 5.0, the depicted dissociation rate constants are an average of the parameters determined by local curve fitting of the dissociation of 200, 100 and 50 nM VHH.
Background: Biolayer interferometry detects binding as a change in optical thickness at a sensor tip.

The target is the same in test [17]. Kind of test: BLI, dissoc pH 5, mean of local fits. Here is the method: as §2, §3
For test [18] the target is unchanged. Kind of test: BLI, dissoc pH 6, mean of local fits. The procedure: as §2, §3
The target is the same in test [19]. Kind of test: BLI, dissoc pH 5.5, mean of local fits. Here is the method:
as §2, §3

Test [20] has the same target. Kind of test: BLI, dissoc pH 6.5, mean of local fits. The procedure:
as §2, §3

In the case of anti-CI-M6PR antibody (clone 2G11), the Kd turned out to be 2760 nM in test [1]; 1510 nM in [2]; 2350 nM in test [3]; 4430 nM in test [4]; 2760 nM in test [8]; 13.1 nM in test [9]. In addition, the koff (in general, the rate constant with which the complex falls apart) is 0.000592 s⁻¹ in [1]; 0.000363 s⁻¹ in test [2]; 0.000479 s⁻¹ in test [3]; 0.000712 s⁻¹ in test [4]; 0.000389 s⁻¹ in [5]; 0.000534 s⁻¹ in [6]. For the same molecule, the values for the off-rate (koff) in test [7], in [8] and in test [9] were 0.00103 s⁻¹, 0.000592 s⁻¹ and 0.000794 s⁻¹, respectively. In addition, the association rate constant (kon) (commonly the second-order rate constant of association) in test [1] turned out to be 215 M⁻¹ s⁻¹; in test [2], 241 M⁻¹ s⁻¹; in [3] it was 204 M⁻¹ s⁻¹; in test [4], 161 M⁻¹ s⁻¹; in test [5] it was 35900 M⁻¹ s⁻¹; in test [6] it was 42600 M⁻¹ s⁻¹. The kon in test [7] came to 31100 M⁻¹ s⁻¹; in test [8], 215 M⁻¹ s⁻¹; in [9], 60700 M⁻¹ s⁻¹. Also, the concentration for a half-maximal effect (EC50 (read off the curve)) – broadly, the concentration needed to bring the measured effect to its halfway point – in test [10] came to 0.6 nM; in [11], 0.2 nM.

B1: humanized VHH8 variant VHH8 h4 (VHH)
VHH: DVQLVESGGGLVQPGGSLRLSCEASGRTFNTYNWGWFRQAPGKEREFVAAIRWSSSKTSYADSVKGRFTISRDNSKNTVYLQMNSLRPEDTAVYYCAASIVDFTTNPSHFGSWGQGTLVTVSS
notes: made in E. coli
For the molecule B1, in test [12], the binding result is on record as “binds”.

B2: humanized VHH8 variant VHH8 h5 (VHH)
VHH: DVQLVESGGGLVQAGGSLRLSCEASGRTFNTYNWGWFRQAPGKEREFVAAIRWSSSKTSYADSVKGRFTISRDNSKNTVYLQMNSLRPEDTAVYYCAASIVDFTTNPSHFGSWGQGTLVTVSS
notes: made in E. coli
As for B2, the binding result in test [12] was “binds”.

B3: anti-CI-M6PR VHH 1H21 (VHH)
VHH: QVQLQESGGGLVQAGGSLRLSCVASGRTFSTLHMGWFHQAPGKERELVAAITRSGDTYYADFVKGRFTISRDNAKNTVYLQMISLKPEDTAVYYCAATGPGGWARLRAHEYDYWGQGTQVTVSS
On to B3, for which the binding result in [13] is “binds”.

B4: anti-CI-M6PR VHH 1H37 (VHH)
VHH: QVQLQESGGGLVQPGGSLRLTCAPSGRTYSTYWMAWFRQAPGKEREIVARINWSDGSTFYTESVKGRFTISGDNAKNTVYLQMTNLKPEDTAVYYCLARTVVSLDDYWGQGTQVTVSS
Turning to B4, in [13], the binding result was “binds”.

B5: anti-CI-M6PR VHH 2H74 (VHH)
VHH: QVQLQESGGGLVQAGGSLRLTCAPSGRTYSTYWMAWFRQAPGKEREIVARINWSDGSTFYTESVKGRFTISGDNAKNTVYLQMTNLKPEDTAVYYCLARTVVSLDDYWGQGTQVTVSS
With B5, the binding result in [14] was “binds”.

B6: 1H74 (VHH)
VHH: QVQLQESGGGLVQPGGSLRLACAASGFTLEDYSIGWFRQAPGKEREGVSCISSSDHSTYYADSVKGRFTISRDNAQNTVYLHMNSLKPEDTAVYYCAGRYSSLARIETNWHDYNYWGQGTQVTVSS
notes: also called anti-CI-M6PR VHH 1H74
As to B6, the binding result in test [15] is listed as “no binding (tested: 400 nM)”.

B7: anti-CI-M6PR VHH 1H52 (VHH)
VHH: QVQLQESGGGLVQPGGSLRLSCTASGFTWDSYVIGWFRQAPGKGREGVSCLDVDDGSIYYHDSAKGRFSISRDNAKNTVYLQMNSLKPEDTAVYYCAAVNRASMRFRRCLQVLRYDYWGQGTQVTVSS
notes: made in E. coli WK6, His-tag purified
As to B7, the Kd in test [16] was 31 nM. For the same molecule, the dissociation rate constant (koff) in test [16] was 0.032 s⁻¹; in test [17], 0.2 s⁻¹; in test [18], 0.03 s⁻¹; in [19], 0.051 s⁻¹; in [20], 0.067 s⁻¹. Further, the on-rate constant (kon) in test [16] amounted to 1e+06 M⁻¹ s⁻¹.

B8: anti-CI-M6PR VHH 2H79 (VHH)
VHH: QVQLQESGGGQVQAGDSLGLSCAASGGAFSTYHMGWFRQAPGKQRELVAAITRGGSSSTKYVDSVKGRFTISRDNAKNTMYLQMNSLQPDDTAVYYCAASPQGKWNALVGGTPDYWGQGTQVTVSS
As for B8, the binding result in [14] was “binds”.
